Experimental findings from paper PMC5818509, “Crystal structure of the hydroxylaminopurine resistance protein, YiiM, and its putative molybdenum cofactor-binding catalytic site” (Scientific Reports, 2018) are described below.

This data set deals with the molecule itself. The data set is described as follows: SEC; gel filtration, Superdex 200 10/300, room temperature, 20 mM Tris pH 8.0, 150 mM NaCl, 5 mM β-mercaptoethanol; BL21-expressed and TP1000-expressed proteins. (Size exclusion chromatography separates by hydrodynamic size, large species first.)

B1: Escherichia coli YiiM (natural protein)
chain: MRYPVDVYTGKIQAYPEGKPSAIAKIQVDGELMLTELGLEGDEQAEKKVHGGPDRALCHYPREHYLYWAREFPEQAELFVAPAFGENLSTDGLTESNVYMGDIFRWGEALIQVSQPRSPCYKLNYHFDISDIAQLMQNTGKVGWLYSVIAPGKVSADAPLELVSRVSDVTVQEAAAIAWHMPFDDDQYHRLLSAAGLSKSWTRTMQKRRLSGKIEDFSRRLWGK
notes: YiiM, a MOSC family protein of Escherichia coli; gene amplified by PCR from E. coli genomic DNA; calculated molecular weight 25.9 kDa; The BL21- and the TP1000-expressed protein are written as one molecule (both behaved alike); the crystal was grown from the TP1000-expressed protein; also called ecYiiM; ecYiiM^Pi (phosphate complex in the crystal); source: E. coli BL21 (DE3) (pET49b) and E. coli …
B1: the stoichiometry N (as a rule, a count of units in the complex or per binding partner) stood at 2.
